For 39 variants, abundance fitness results are on record in the Human Domainome abundance scans (Beltran et al. 2025).

± gives the uncertainty stated by the source.

The chains are these.
B1: POU domain, class 3, transcription factor 3, residues 320 to 388; numbered along this chain, P20264 (parent)
chain: DDLEQFAKQFKQRRIKLGFTQADVGLALGTLYGNVFSQTTICRFEALQLSFKNMCKLKPLLNKWLEEAD

Variants of B1 are the subject of this data set. In words: abundance fitness (aPCA) (normalised: wild type 0, dead -1); higher = more abundant; growth selection in yeast, the domain comes from the species named. As to conditions: Homo sapiens.
With DDLEQFAKQFKQRRIKLGFTQADVGLALGTLYGNYFSQTTICRFEALQLSFKNMCKLKPLLNKWLEEAD [V35Y], the abundance fitness was -0.108 ± 0.09. Under DDLEQFAKQFKQRRIKLGFTQADVGLALGTLYGNRFSQTTICRFEALQLSFKNMCKLKPLLNKWLEEAD [V35R] stands -0.009 ± 0.071; under DDLEQFAKQFKQRRIKLGFTQADVGLALGTLYGNTFSQTTICRFEALQLSFKNMCKLKPLLNKWLEEAD [V35T], 0.304 ± 0.11; under DDLEQFAKQFKQRRIKLGFTQADVGLALGTLYGNSFSQTTICRFEALQLSFKNMCKLKPLLNKWLEEAD [V35S], -0.125 ± 0.085. Under DDLEQFAKQFKQRRIKLGFTQADVGLALGTLYGNVFSCTTICRFEALQLSFKNMCKLKPLLNKWLEEAD [Q38C] stands -0.32 ± 0.15. In the case of DDLEQFAKQFKQRRIKLGFTQADVGLALGTLYGNVFSFTTICRFEALQLSFKNMCKLKPLLNKWLEEAD [Q38F], the abundance fitness was -0.356 ± 0.21. Under DDLEQFAKQFKQRRIKLGFTQADVGLALGTLYGNVFSGTTICRFEALQLSFKNMCKLKPLLNKWLEEAD [Q38G] stands 0.003 ± 0.065; under DDLEQFAKQFKQRRIKLGFTQADVGLALGTLYGNVFSDTTICRFEALQLSFKNMCKLKPLLNKWLEEAD [Q38D], -0.075 ± 0.4. Take DDLEQFAKQFKQRRIKLGFTQADVGLALGTLYGNVFSATTICRFEALQLSFKNMCKLKPLLNKWLEEAD [Q38A]: the abundance fitness is -0.143 ± 0.1. Under DDLEQFAKQFKQRRIKLGFTQADVGLALGTLYGNVFSETTICRFEALQLSFKNMCKLKPLLNKWLEEAD [Q38E] stands 0.192 ± 0.089. On to DDLEQFAKQFKQRRIKLGFTQADVGLALGTLYGNVFLQTTICRFEALQLSFKNMCKLKPLLNKWLEEAD [S37L], for which the abundance fitness is -0.629 ± 0.11. As for DDLEQFAKQFKQRRIKLGFTQADVGLALGTLYGNVFGQTTICRFEALQLSFKNMCKLKPLLNKWLEEAD [S37G], the abundance fitness is -0.44 ± 0.12. For DDLEQFAKQFKQRRIKLGFTQADVGLALGTLYGNVFYQTTICRFEALQLSFKNMCKLKPLLNKWLEEAD [S37Y] the value was -0.725 ± 0.3.

Turning to DDLEQFAKQFKQRRIKLGFTQADVGLALGTLYGNVFHQTTICRFEALQLSFKNMCKLKPLLNKWLEEAD [S37H], the abundance fitness is -0.076 ± 0.11. As to DDLEQFAKQFKQRRIKLGFTQADVGLALGTLYGNVFRQTTICRFEALQLSFKNMCKLKPLLNKWLEEAD [S37R], the abundance fitness was -0.55 ± 0.12. As to DDLEQFAKQFKQRRIKLGFTQADVGLALGTLYGNVFDQTTICRFEALQLSFKNMCKLKPLLNKWLEEAD [S37D], the abundance fitness is -0.157 ± 0.4. For the variant DDLEQFAKQFKQRRIKLGFTQADVGLALGTLYGNVFFQTTICRFEALQLSFKNMCKLKPLLNKWLEEAD [S37F], the abundance fitness is -0.841 ± 0.28.

DDLEQFAKQFKQRRIKLGFTQADVGLALGTLYGNVFQQTTICRFEALQLSFKNMCKLKPLLNKWLEEAD [S37Q]: the abundance fitness is -0.386 ± 0.26. As to DDLEQFAKQFKQRRIKLGFTQADVGLALGTLYGNVFEQTTICRFEALQLSFKNMCKLKPLLNKWLEEAD [S37E], the abundance fitness is -0.32 ± 0.13. In the case of DDLEQFAKQFKQRRIKLGFTQADVGLALGTLYGNVFCQTTICRFEALQLSFKNMCKLKPLLNKWLEEAD [S37C], the abundance fitness was -0.629 ± 0.26. Under DDLEQFAKQFKQRRIKLGFTQADVGLALGTLYGNVFAQTTICRFEALQLSFKNMCKLKPLLNKWLEEAD [S37A] stands -0.246 ± 0.13; under DDLEQFAKQFKQRRIKLGFTQADVGLALGTLYGNVFTQTTICRFEALQLSFKNMCKLKPLLNKWLEEAD [S37T], -0.337 ± 0.14.

For the variant DDLEQFAKQFKQRRIKLGFTQADVGLALGTLYGNVFKQTTICRFEALQLSFKNMCKLKPLLNKWLEEAD [S37K], the abundance fitness was -0.532 ± 0.18.

DDLEQFAKQFKQRRIKLGFTQADVGLALGTLYGNVFNQTTICRFEALQLSFKNMCKLKPLLNKWLEEAD [S37N]: the abundance fitness is -0.338 ± 0.3. Under DDLEQFAKQFKQRRIKLGFTQADVGLALGTLYGNVFVQTTICRFEALQLSFKNMCKLKPLLNKWLEEAD [S37V] stands -0.7 ± 0.19; under DDLEQFAKQFKQRRIKLGFTQADVGLALGTLYGNVESQTTICRFEALQLSFKNMCKLKPLLNKWLEEAD [F36E], -0.121 ± 0.2; under DDLEQFAKQFKQRRIKLGFTQADVGLALGTLYGNVHSQTTICRFEALQLSFKNMCKLKPLLNKWLEEAD [F36H], -0.216 ± 0.19. Under DDLEQFAKQFKQRRIKLGFTQADVGLALGTLYGNVQSQTTICRFEALQLSFKNMCKLKPLLNKWLEEAD [F36Q] stands -0.214 ± 0.17; under DDLEQFAKQFKQRRIKLGFTQADVGLALGTLYGNVKSQTTICRFEALQLSFKNMCKLKPLLNKWLEEAD [F36K], -0.364 ± 0.2; under DDLEQFAKQFKQRRIKLGFTQADVGLALGTLYGNVWSQTTICRFEALQLSFKNMCKLKPLLNKWLEEAD [F36W], -0.714 ± 0.23.

On to DDLEQFAKQFKQRRIKLGFTQADVGLALGTLYGNVPSQTTICRFEALQLSFKNMCKLKPLLNKWLEEAD [F36P], for which the abundance fitness is -0.043 ± 0.2. With DDLEQFAKQFKQRRIKLGFTQADVGLALGTLYGNVTSQTTICRFEALQLSFKNMCKLKPLLNKWLEEAD [F36T], the abundance fitness amounted to 0.071 ± 0.11. On to DDLEQFAKQFKQRRIKLGFTQADVGLALGTLYGNVLSQTTICRFEALQLSFKNMCKLKPLLNKWLEEAD [F36L], for which the abundance fitness was -0.07 ± 0.078.

On to DDLEQFAKQFKQRRIKLGFTQADVGLALGTLYGNVYSQTTICRFEALQLSFKNMCKLKPLLNKWLEEAD [F36Y], for which the abundance fitness was -0.04 ± 0.14. Under DDLEQFAKQFKQRRIKLGFTQADVGLALGTLYGNVMSQTTICRFEALQLSFKNMCKLKPLLNKWLEEAD [F36M] stands 0.021 ± 0.13; under DDLEQFAKQFKQRRIKLGFTQADVGLALGTLYGNVRSQTTICRFEALQLSFKNMCKLKPLLNKWLEEAD [F36R], 0.368 ± 0.17. Under DDLEQFAKQFKQRRIKLGFTQADVGLALGTLYGNVCSQTTICRFEALQLSFKNMCKLKPLLNKWLEEAD [F36C] stands 0.219 ± 0.22. On to DDLEQFAKQFKQRRIKLGFTQADVGLALGTLYGNVVSQTTICRFEALQLSFKNMCKLKPLLNKWLEEAD [F36V], for which the abundance fitness amounted to 0.017 ± 0.073.

For DDLEQFAKQFKQRRIKLGFTQADVGLALGTLYGNVASQTTICRFEALQLSFKNMCKLKPLLNKWLEEAD [F36A], the abundance fitness was -0.068 ± 0.16.
